According to IntAct's records for PubMed 23650535:

B1: Receptor-type tyrosine-protein phosphatase eta (Homo sapiens), Q12913 (parent)
chain: MKPAAREARLPPRSPGLRWALPLLLLLLRLGQILCAGGTPSPIPDPSVATVATGENGITQISSTAESFHKQNGTGTPQVETNTSEDGESSGANDSLRTPEQGSNGTDGASQKTPSSTGPSPVFDIKAVSISPTNVILTWKSNDTAASEYKYVVKHKMENEKTITVVHQPWCNITGLRPATSYVFSITPGIGNETWGDPRVIKVITEPIPVSDLRVALTGVRKAALSWSNGNGTASCRVLLESIGSHEELTQDSRLQVNISGLKPGVQYNINPYLLQSNKTKGDPLGTEGGLDASNTERSRAGSPTAPVHDESLVGPVDPSSGQQSRDTEVLLVGLEPGTRYNATVYSQAANGTEGQPQAIEFRTNAIQVFDVTAVNISATSLTLIWKVSDNESSSNYTYKIHVAGETDSSNLNVSEPRAVIPGLRSSTFYNITVCPVLGDIEGTPGFLQVHTPPVPVSDFRVTVVSTTEIGLAWSSHDAESFQMHITQEGAGNSRVEITTNQSIIIGGLFPGTKYCFEIVPKGPNGTEGASRTVCNRTVPSAVFDIHVVYVTTTEMWLDWKSPDGASEYVYHLVIESKHGSNHTSTYDKAITLQGLIPGTLYNITISPEVDHVWGDPNSTAQYTRPSNVSNIDVSTNTTAATLSWQNFDDASPTYSYCLLIEKAGNSSNATQVVTDIGITDATVTELIPGSSYTVEIFAQVGDGIKSLEPGRKSFCTDPASMASFDCEVVPKEPALVLKWTCPPGANAGFELEVSSGAWNNATHLESCSSENGTEYRTEVTYLNFSTSYNISITTVSCGKMAAPTRNTCTTGITDPPPPDGSPNITSVSHNSVKVKFSGFEASHGPIKAYAVILTTGEAGHPSADVLKYTYEDFKKGASDTYVTYLIRTEEKGRSQSLSEVLKYEIDVGNESTTLGYYNGKLEPLGSYRACVAGFTNITFHPQNKGLIDGAESYVSFSRYSDAVSLPQDPGVICGAVFGCIFGALVIVTVGGFIFWRKKRKDAKNNEVSFSQIKPKKSKLIRVENFEAYFKKQQADSNCGFAEEYEDLKLVGISQPKYAAELAENRGKNRYNNVLPYDISRVKLSVQTHSTDDYINANYMPGYHSKKDFIATQGPLPNTLKDFWRMVWEKNVYAIIMLTKCVEQGRTKCEEYWPSKQAQDYGDITVAMTSEIVLPEWTIRDFTVKNIQTSESHPLRQFHFTSWPDHGVPDTTDLLINFRYLVRDYMKQSPPESPILVHCSAGVGRTGTFIAIDRLIYQIENENTVDVYGIVYDLRMHRPLMVQTEDQYVFLNQCVLDIVRSQKDSKVDLIYQNTTAMTIYENLAPVTTFGKTNGYIA

Variants of: B1
Details: with flt3_human FLT3, P36888
flt3_human FLT3, P36888, sequence (P36888 whole entry): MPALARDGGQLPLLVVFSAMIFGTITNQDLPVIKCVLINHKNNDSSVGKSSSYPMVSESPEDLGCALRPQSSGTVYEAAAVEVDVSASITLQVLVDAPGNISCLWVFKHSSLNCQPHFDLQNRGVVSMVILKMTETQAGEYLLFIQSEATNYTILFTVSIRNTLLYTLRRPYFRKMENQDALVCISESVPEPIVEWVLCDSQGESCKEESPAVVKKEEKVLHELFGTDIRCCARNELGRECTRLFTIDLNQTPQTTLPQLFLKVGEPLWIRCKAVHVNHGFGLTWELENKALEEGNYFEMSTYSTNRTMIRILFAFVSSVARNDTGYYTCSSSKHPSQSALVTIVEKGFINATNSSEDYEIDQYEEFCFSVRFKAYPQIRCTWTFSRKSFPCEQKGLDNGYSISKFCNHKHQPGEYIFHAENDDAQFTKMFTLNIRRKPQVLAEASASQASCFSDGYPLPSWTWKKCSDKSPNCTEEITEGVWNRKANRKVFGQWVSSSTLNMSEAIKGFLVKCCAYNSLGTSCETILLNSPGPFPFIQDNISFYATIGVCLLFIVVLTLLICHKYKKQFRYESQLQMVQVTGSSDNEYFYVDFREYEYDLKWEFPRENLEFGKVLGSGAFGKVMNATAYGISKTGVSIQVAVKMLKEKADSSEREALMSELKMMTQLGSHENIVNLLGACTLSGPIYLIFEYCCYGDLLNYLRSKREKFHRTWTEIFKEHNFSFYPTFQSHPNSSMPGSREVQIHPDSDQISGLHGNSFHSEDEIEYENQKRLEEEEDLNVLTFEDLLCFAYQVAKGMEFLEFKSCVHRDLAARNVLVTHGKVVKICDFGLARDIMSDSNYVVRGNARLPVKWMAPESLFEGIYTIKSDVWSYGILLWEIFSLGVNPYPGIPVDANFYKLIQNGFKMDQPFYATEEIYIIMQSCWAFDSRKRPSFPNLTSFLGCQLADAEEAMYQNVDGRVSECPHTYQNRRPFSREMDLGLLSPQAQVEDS

Variant	effect of a mutation on the interaction
C1239S	increasing interaction strength
